Where a chain is given by its changes, count along the chain named. “And” between values parts separate entries of the source, which are not always exact repeats. Equal values may be shown once. Read-outs that look alike come from different tables or passages of the source.

Experiment [1] addresses T1, IL-18 previously complexed to IL-18BP (Homo sapiens, UniProt Q14116).
T1 sequence (Q14116 37-193): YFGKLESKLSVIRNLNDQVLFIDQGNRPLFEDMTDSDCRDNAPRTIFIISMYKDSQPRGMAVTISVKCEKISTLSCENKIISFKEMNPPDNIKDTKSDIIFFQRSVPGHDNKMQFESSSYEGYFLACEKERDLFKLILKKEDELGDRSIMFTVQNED
T1 sequence (O95998 31-194 partner): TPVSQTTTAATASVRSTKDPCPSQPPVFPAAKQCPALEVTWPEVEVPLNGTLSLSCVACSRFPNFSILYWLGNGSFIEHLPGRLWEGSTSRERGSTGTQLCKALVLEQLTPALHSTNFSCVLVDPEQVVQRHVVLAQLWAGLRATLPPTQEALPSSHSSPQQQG
Description: Luminex screening third step: monoclonal antibody binding on IL-18 previously complexed to IL-18BP. The settings on record: for fluorescence signal after binding IL-18 in the presence of IL-18BP: third screening step. The source says: Third step. A third screening program was undertaken with Luminex beads linked to IL-18BP and then complexed to interleukin-18, assuring the presentation of properly folded recombinant IL-18 to positive antibody candidates.

Another experiment deals with T2, human interleukin-18 (Homo sapiens, UniProt Q14116).
T2 sequence (Q14116 37-193): T1 sequence (Q14116 37-193)
Description: Luminex screening first step: monoclonal antibodies binding on IL-18. The settings on record: IL-18 attached to Luminex beads. The source says:
Mice were vaccinated against human interleukin-18 using a technology allowing immunization with properly folded proteins. Prior to immunization, genetically modified mice were selected for major histocompatibility complexes supposedly sensitive to IL-18 surface area epitopes binding IL-18BP. Following immunization, B cells were isolated from spleen and hybridized following standard hybridoma technology. Hybridoma were sorted onto microplates and then tested for expression of monoclonal anti-IL-18 antibodies targeting IL-18 epitopes included in IL-18BP binding site. The screening was performed in 3 sequential and selective steps: […]

The target of experiment [2] is T3, IL-18 (Homo sapiens, UniProt Q14116).
T3 sequence (Q14116 37-193): T1 sequence (Q14116 37-193)
Briefly: Luminex screening second step: biotinylated IL-18BP binding on IL-18 previously complexed to monoclonal antibody. The source says: Second step. Potential antibodies targeting IL-18 on IL-18BP binding site were rescreened in competition with IL-18BP, but not with IL-18BP fusions with Fc antibody domains, or other type of fusions, in order to prevent false antibody positive candidates due to steric hindrance created by the fused peptide. For this, monoclonal antibodies were bound to Luminex beads carrying IL-18. The complex was then exposed to biotinylated IL-18BP in order to identify interference to previously identified anti-IL-18 antibodies (see Table 7, Column #2).

Experiment [3] deals with T3, IL-18. Description: KD of monoclonal antibodies by titration with a defined IL-18 molarity (EC50, Law of Mass Action). The experiment is classed as binding. Here is the method: The respective KD values of each monoclonal antibody was calculated following titration of the antibodies with a defined IL-18 molarity and derived from the obtained EC50 values with the Law of Mass Action (see above).

B1: Antibody 107C6: monoclonal anti-IL-18 antibody; VH SEQ ID NO 9, VK SEQ ID NO 10 (antibody, V domains shown)
VH: QIQLVQSGPELKKPGETVKLSCRASGYTFTNYGMNWVKQAPGKGLKWMGWINTYSGVPTYADDFKGQFAFSLETSAATAFLQINNLKDEDTATYFCAREGYSTTRSMDYWGQGTSVTVSS
VL: DIVMSQSPSSLAVSAGEKVTMSCKSSQSLLDSRTRKNYLVWYQQKPGQSPKLLIYWASTRGSGVPDRFTGSGSGTDFTLTISSVQAEDLAVYYCKQSYNLRTFGGGTKLEIK
modifications: Antibody 107C6 VH variable domain sequence; Antibody 107C6 VK variable domain sequence
As for B1, the “fluorescence signal after binding IL-18 in the presence of IL-18BP” value (“fluorescence signal” below) in experiment [1] was “very low fluorescence signal”. In addition, the “Monoclonal antibodies binding on IL-18, Fluorescence intensity” value (“Monoclonal antibodies binding” for short) with human interleukin-18 is given as 26 250. The “IL-18BP binding on IL-18 previously complexed to monoclonal antibody, Fluorescence intensity” value (“IL-18BP binding” below) in the experiment with IL-18 [2] was 1 389.

B2: Antibody 108F8: monoclonal anti-IL-18 antibody; VH SEQ ID NO 11, VK SEQ ID NO 12 (antibody, V domains shown)
VH: B1 VH with E10D, L11S
VL: B1 VL
modifications: Antibody 108F8 VH variable domain sequence; Antibody 108F8 VK variable domain sequence
Take B2: the “fluorescence signal” value in experiment [1] is on record as “very low fluorescence signal”. In addition, in the experiment with human interleukin-18, the “Monoclonal antibodies binding” value is recorded as 25 126. The “IL-18BP binding” value in the experiment with IL-18 [2] is 1 292.

B3: Antibody 132H4: monoclonal anti-IL-18 antibody; VH SEQ ID NO 23, VK SEQ ID NO 24 (antibody, V domains shown)
VH: EVKLVESGGGLVKPGGSLKLSCAASGFTFSNYAMSWVRQNPAKRLEWVATISSGGANIYYPDSVKGRFIISRDNARNTLYLQMSSLRSEDTAMYYCARGDYFNHFWFAYWGQGTLVTVSA
VL: DVLMTQTPLSLPVSLGDQASISCRSSQSIVHSNGNTYLEWYLQKPGQSPKFLIYKVSNRFSGVPDRFSGSGSGTDFTLKINRVEAEDLGIYYCFQGSHVPWTFGGGTKLEIK
modifications: Antibody 132H4 VH variable domain sequence; Antibody 132H4 VK variable domain sequence
As for B3, in experiment [1], the “fluorescence signal” value is “very low fluorescence signal”. In the experiment with human interleukin-18, the “Monoclonal antibodies binding” value is recorded as 23 839. The “IL-18BP binding” value with IL-18 [2] is 1 488.

B4: Antibody 109A6: monoclonal anti-IL-18 antibody; VH SEQ ID NO 13, VK SEQ ID NO 14 (antibody, V domains shown)
VH: EVQLQQSGAELVKPGASVKLSCTASGFKIKDTYIHWVIQRPAQGLEWIGRIDPANGNTIYGSKFQGKATLTADTSSNTAYIHLSSLTSGDSAVYYCAGYVWFAYWGQGTLVTVSA
VL: DVVMTQVPLSLPVSLGDQASISCRSSQRLVHSNGNTYLHWFLQKPGQSPKLLIYTVSNRFSGVPDRFSGSGSGTDFTLKISRVEAEDLGVYFCSQSTLVPWTFGGGTKLEIK
modifications: Antibody 109A6 VH variable domain sequence; Antibody 109A6 VK variable domain sequence
On to B4, for which the “fluorescence signal” value in experiment [1] is recorded as “very low fluorescence signal”. For the same molecule, the “Monoclonal antibodies binding” value in the experiment with human interleukin-18 is recorded as 25 848.

B5: Antibody 131B4: monoclonal anti-IL-18 antibody; VH SEQ ID NO 18, 103 or 109, VK SEQ ID NO 19 (antibody, V domains shown)
VH: B4 VH with L4V, V37L, I38K, A42E, L70I, H82Q, S91T, Y95F
VL: DAVLTQTPLSLPVSLGDQASISCTSSQSLVHSNGNTYLHWYLQKPGQSPKLLIYKVSDRFSGVPDRFSGSGSGTDFTLMITRVEAEDLGVYFCSQSSLVPWTFGGGTKLEVK
With B5, the Kd in the experiment with IL-18 [3] (mean of determinations, read-out: KD, Mean) is 0.015 nM; with IL-18 [3] (single determinations, read-out: KD) it was 0.02 nM and 0.01 nM. Besides, the “Column #3 Monoclonal antibody binding on IL-18 previously complexed to IL-18BP, Fluorescence intensity” value in experiment [1] (Luminex beads linked to IL-18BP, complexed to IL-18) came out at 41. The “fluorescence signal” value in experiment [1] was “very low fluorescence signal”. Besides, the “Monoclonal antibodies binding” value with human interleukin-18 was 24 838. In addition, in the experiment with IL-18 [2], the “IL-18BP binding” value is 1 656.

These data come from patent publication US12679888B2, “IL-18 binding protein (IL-18BP) and antibodies for treating inflammatory diseases” (AB2 BIO SA, priority 2015, dated 2026).
